Data taken from article PMC6765133 (Nucleic Acids Research, 2019).

B1: Deinococcus geothermalis DdrO (residues 12-140) (natural protein)
chain: MGSSHHHHHHSSGLVPRGSHMKLHERLRELRSERGLRLKDVAETAGISVPYLSDLERGRTNPSLETLQTLAGAYSITVHDLLEGVEFYGDSTEGALPKGLADLVADPLLGSQITPDWVRTLSRIELRGKRPRDKQDWYEIYLHLKRILG
B2: DG-DdrO Y129A (natural protein)
chain: MGSSHHHHHHSSGLVPRGSHMKLHERLRELRSERGLRLKDVAETAGISVPYLSDLERGRTNPSLETLQTLAGAYSITVHDLLEGVEFYGDSTEGALPKGLADLVADPLLGSQITPDWVRTLSRIELRGKRPRDKQDWAEIYLHLKRILG
B3: DG-DdrO Y132A (natural protein)
chain: MGSSHHHHHHSSGLVPRGSHMKLHERLRELRSERGLRLKDVAETAGISVPYLSDLERGRTNPSLETLQTLAGAYSITVHDLLEGVEFYGDSTEGALPKGLADLVADPLLGSQITPDWVRTLSRIELRGKRPRDKQDWYEIALHLKRILG
B4: DG-DdrO R22A (natural protein)
chain: MGSSHHHHHHSSGLVPRGSHMKLHERLRELASERGLRLKDVAETAGISVPYLSDLERGRTNPSLETLQTLAGAYSITVHDLLEGVEFYGDSTEGALPKGLADLVADPLLGSQITPDWVRTLSRIELRGKRPRDKQDWYEIYLHLKRILG

Biological target: the molecule itself
Assay: SEC

Protein	stoichiometry N
B1	2
B2	2
B3	2
B4	2
